The assay addresses recombinant MARK2, expressed in E. coli (Rattus norvegicus (Rat)) (UniProt O08679). Description: cell-based or functional assay.

The values that follow come from patent EP1514558A1.

recombinant MARK2, expressed in E. coli (Rattus norvegicus (Rat)), sequence (O08679 1-722, tags left off): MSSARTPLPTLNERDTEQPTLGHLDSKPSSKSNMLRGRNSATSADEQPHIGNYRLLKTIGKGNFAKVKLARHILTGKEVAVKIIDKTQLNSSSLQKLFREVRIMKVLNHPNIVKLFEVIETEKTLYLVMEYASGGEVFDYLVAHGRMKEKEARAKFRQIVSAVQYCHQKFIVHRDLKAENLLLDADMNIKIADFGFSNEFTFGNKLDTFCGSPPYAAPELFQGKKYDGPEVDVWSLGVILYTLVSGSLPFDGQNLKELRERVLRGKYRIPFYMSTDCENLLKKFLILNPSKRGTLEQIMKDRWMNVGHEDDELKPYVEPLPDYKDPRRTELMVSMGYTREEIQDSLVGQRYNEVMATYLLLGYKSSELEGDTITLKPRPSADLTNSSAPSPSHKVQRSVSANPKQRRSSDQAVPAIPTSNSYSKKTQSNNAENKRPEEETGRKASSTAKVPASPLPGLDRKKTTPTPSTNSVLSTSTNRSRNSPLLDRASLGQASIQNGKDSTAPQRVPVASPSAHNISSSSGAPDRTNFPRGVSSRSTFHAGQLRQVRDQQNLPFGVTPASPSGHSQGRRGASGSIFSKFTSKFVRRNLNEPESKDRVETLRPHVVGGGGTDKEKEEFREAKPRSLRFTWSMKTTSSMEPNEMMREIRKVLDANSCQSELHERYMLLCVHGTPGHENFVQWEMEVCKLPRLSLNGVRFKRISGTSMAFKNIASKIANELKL

As for “MARK-activating factor (MAF) purified from porcine brain”, the activation of MARK2 by fraction 14 worked out at 10 fold.
“recombinant MARKK (His10-tagged at the N-terminus), expressed in Sf9 cells (from UniProt O88664 1-1001) (enzyme)”: the activation of MARK2 (Fig. 4B) came to 10 fold.
